Measured values as given in publication PMC9474881.

Target: PsgIBP_L, larger (28 kDa) ice-binding protein isoform from Psychromyces glacialis (Psychromyces glacialis)
Test: SEC; analytical Superose12 column, 20 mM Tris-HCl pH 8.0 + 500 mM NaCl, 0.8 ml/min, 4 °C; 0.5 mL of 1 mg/ml protein loaded; molecular weight from a calibration line with five reference proteins

stoichiometry N: 2
Substance: PsgIBP_L, larger (28 kDa) ice-binding protein isoform from Psychromyces glacialis (natural protein)
